From paper PMC9618391 (2022) come the findings set out here.

B1: wild-type human sodium/iodide symporter (hNIS) [human] / μ1B (AP1M2) expressed from cDNA in COS-7 cells [not stated] (parent complex)
chain 1: MEAVETGERPTFGAWDYGVFALMLLVSTGIGLWVGLARGGQRSAEDFFTGGRRLAALPVGLSLSASFMSAVQVLGVPSEAYRYGLKFLWMCLGQLLNSVLTALLFMPVFYRLGLTSTYEYLEMRFSRAVRLCGTLQYIVATMLYTGIVIYAPALILNQVTGLDIWASLLSTGIICTFYTAVGGMKAVVWTDVFQVVVMLSGFWVVLARGVMLVGGPRQVLTLAQNHSRINLMDFNPDPRSRYTFWTFVVGGTLVWLSMYGVNQAQVQRYVACRTEKQAKLALLINQVGLFLIVSSAACCGIVMFVFYTDCDPLLLGRISAPDQYMPLLVLDIFEDLPGVPGLFLACAYSGTLSTASTSINAMAAVTVEDLIKPRLRSLAPRKLVIISKGLSLIYGSACLTVAALSSLLGGGVLQGSFTVMGVISGPLLGAFILGMFLPACNTPGVLAGLGAGLALSLWVALGATLYPPSEQTMRVLPSSAARCVALSVNASGLLDPALLPANDSSRAPSSGMDASRPALADSFYAISYLYYGALGTLTTVLCGALISCLTGPTKRSTLAPGLLWWDLARQTASVAPKEEVAILDDNLVKGPEELPTGNKKPPGFLPTNEDRLFFLGQKELEGAGSWTPCVGHDGGRDQQETNL
chain 2: MSASAVFILDVKGKPLISRNYKGDVAMSKIEHFMPLLVQREEEGALAPLLSHGQVHFLWIKHSNLYLVATTSKNANASLVYSFLYKTIEVFCEYFKELEEESIRDNFVIVYELLDELMDFGFPQTTDSKILQEYITQQSNKLETGKSRVPPTVTNAVSWRSEGIKYKKNEVFIDVIESVNLLVNANGSVLLSEIVGTIKLKVFLSGMPELRLGLNDRVLFELTGRSKNKSVELEDVKFHQCVRLSRFDNDRTISFIPPDGDFELMSYRLSTQVKPLIWIESVIEKFSHSRVEIMVKAKGQFKKQSVANGVEISVPVPSDADSPRFKTSVGSAKYVPERNVVIWSIKSFPGGKEYLMRAHFGLPSVEKEEVEGRPPIGVKFEIPYFTVSGIQVRYMKIIEKSGYQALPWVRYITQSGDYQLRTS

The variants in the experiment derive from B1. Kind of experiment: co-immunoprecipitation with Western blot quantification; COS-7 cells cotransfected with hNIS and μ1B; IP α-μ1B, WB α-hNIS; parent: 100; read off a plot.
As for chain 1 Y118A, the percent of parent was ~61 % Relative to hNIS WT.
The same measure for chain 1 L121A: ~60 % Relative to hNIS WT; for chain 1 L587A: ~100 % Relative to hNIS WT; for chain 1 L594A: ~84 % Relative to hNIS WT.
The same measure for chain 1 L583A: ~5 % Relative to hNIS WT; for chain 1 Y120A: ~83 % Relative to hNIS WT.
The same measure for chain 1 L562A, chain 1 L563A: ~32 % Relative to hNIS WT.
